We go through six molecules from US7358338B2, “Heme peptide” (Nihon University, priority 2002, dated 2008).

Data set [1] can be described thus: Measurement of NO-scavenging ability (nitrite/dithionite/methyl viologen reaction, remaining nitrite by diazotization method). The note with it: reaction turnover number from Lineweaver-Burk plot; 2, 4, 6, 8 and 10 mM sodium nitrite; pH 7.0; 37° C. Format: biochemical. Here is the method:
To a 10 ml vial, 0.3 ml of 100 mM phosphate buffer (pH 7.0), 0.4 ml of 10 mM sodium nitrite, 0.5 ml of a solution of each of the above-described peptides, and 0.4 ml of 3 mM methyl viologen (Tokyo Kasei Kogyo) were added. Then, the vial was tightly sealed with a butyl rubber stopper and an aluminum seal. This vial was kept at 37° C. for 5 min while feeding argon gas thereinto. Then, 0.3 ml of 100 mM sodium dithionite (dissolved in 50 mM sodium hydrogencarbonate) was added thereto to start the reaction. A 0.2 ml sample was taken from the reaction solution at regular intervals and air-oxidized in a vortex mixer to thereby terminate the reaction.
The amount of the remaining nitrite was determined by the diazotization method. 0.02 ml of the reaction solution was taken, and 1.98 ml of ultrapure water was added thereto. Then, 1 ml of 1% sulfanilamide, 1 ml of 0.02% N-1-naphthyl ethylenediamine chloride and 1 ml of ultrapure water were added thereto. The resultant solution was left at room temperature for 20 min. Then, absorption of the produced azo dye was measured at 540 nm, followed by calculation of the amount of the remaining nitrite from a working curve prepared from a nitrous acid solution of a known concentration.
The measurement of absorption was performed with Shimadzu UV-1600 UV-Visible Spectrophotometer.
Analysis based on reaction kinetics was performed by determining specific activities against 2, 4, 6, 8 and 10 mM sodium nitrite and then calculating the reaction turnover number kcat(s^−1) using a Lineweaver-Burk plot.

Data set [2] is described as follows: Isoelectric point by isoelectric focusing (Ampholine PAGplate gel, pH 3.5-9.5). Type of data set: physicochemical. The protocol: (§1) In the following Examples, reagents manufactured by Wako Purechemical Industries were used unless otherwise noted. Isoelectric point was analyzed by isoelectric focusing using Ampholine PAGplate gel (Pharmacia; for IEF; pH 3.5-9.5). Absorption maximum was determined with Hitachi U-3310 Spectrophotometer (Hitachi). Oxidation-reduction potential was determined with Hitachi U-3310 Spectrophotometer (Hitachi) and ORP electrode (Metrohm).

Data set [3] is described as follows: Oxidation-reduction potential (spectrophotometer and ORP electrode). Type of data set: physicochemical. Here is the method: as §1

On to “Horse cardiac muscle cytochrome c: horse cardiac muscle cytochrome c (Wako Purechemical Industries), SEQ ID NO: 1; comparison protein [reference compound]”, for which the “Rate Constant kcat” value in data set [1] came to 0.01521 s⁻¹.
“mp9: heme peptide, SEQ ID NO: 4, heme bound to Cys 1 and 4; trypsin digest of horse cardiac muscle cytochrome c (CAQCHTVEK; heme bound to Cys1 and Cys4; listed as Equus caballus)”: the Isoelectric point in data set [2] is 4.95. Besides, in data set [1], the “Rate Constant kcat” value was found to be 1.66 s⁻¹. Also, in data set [3], the Oxidation-reduction potential is −132 mV.
The corresponding values for “mp22: heme peptide, SEQ ID NO: 5, heme bound to Cys 4 and 7; chymotrypsin digest of horse cardiac muscle cytochrome c (VQKCAQCHTVEKGGKHKTGPNL; heme bound to Cys4 and Cys7; listed as Equus caballus)” are 6.02, 0.80 s⁻¹ and −66.5 mV.
The corresponding values for “mp15: heme peptide, SEQ ID NO: 3, heme bound to Cys 5 and 8; thermolysin digest of Porphyra yezonesis cytochrome c6 (FSANCAACHAGGNNA; heme bound to Cys5 and Cys8; listed as Porphyra yezoensis)” are 4.15, 2.54 s⁻¹ and −82.2 mV.
With “mp65: heme peptide, SEQ ID NO: 6, heme bound to Cys 14 and 17; cyanogen bromide cleavage of horse cardiac muscle cytochrome c”, the Isoelectric point in data set [2] was 9.52. Also, in data set [1], the “Rate Constant kcat” value turned out to be 0.12 s⁻¹. This molecule gave an Oxidation-reduction potential in data set [3] of −62.1 mV.

B1: Red alga Porphyra yezonesis cytochrome c6: cytochrome c6 purified from red alga Porphyra yezonesis, SEQ ID NO: 2; comparison protein (protein, listed as Porphyra yezoensis)
chain: ADLDNGEKVFSANCAACHAGGNNAIMPDKTLKKDVLEANSMNTIDAITYQVQNGKNAMPAFGGRLVDEDIEDAANYVLSQSEKGW
Take B1: the “Rate Constant kcat” value in data set [1] amounted to 0.05 s⁻¹.
